No end group written: not given here. *: point of attachment. Octanoyl = CCCCCCCC(=O)*
B1: Ghrelin (1-8, desacyl) (peptide)
peptide: GSSFLSPE
notes: also called hGhrelin (1-8 desacyl)
B2: Fab 4641 (Fab, V domains shown)
VH: QVQLQQSRPELVRPGASVKMSCRASAYTFTTYWMHWVRQRPGQGLEWIGMIDPSNSDTWLNQKFKDKATLNVDRSSNTAYMQLTSLTSEDSAVYYCARTGFDYWGQGTTLTVSS
VL: DVVMTQTPLSLPVSLGDQASISCRSSQSLVHSDGNTYLHWYLQKPGQSPKLLIYKVSNRFSGVPDRFSGSGSGTDFTLKISRVEAEDLGVYFCSQSTYVSYTFGGGTKLEIKR
notes: Mouse Fab
B3: Fab 1451 (Fab, V domains shown)
VH: QVHVKQSGPELVRPGASVKMSCKASAYTFTTYWMHWVKQRPGQGLEWIGMIDPYNSETWLNQKFKDKATLNVDRSSNTAYMKLSSLTSEDSAVYYCARTGFDYWGQGTTLTVSS
VL: DVVLTQTPLSLPVSLGDQASISCRSSQSLVHSNGNTYLHWYLQKPGQSPKLLIYKVSNRFSGVPDRFSGSGSGTDFTLKISRVEAEDLGVYFCSQSTHVPYTFGGGTKLEIKR
notes: Mouse Fab
B4: Ghrelin (9-28) (peptide)
peptide: HQRVQQRKESKKPPAKLQPR
notes: also called hGhrelin (9-28)
B5: Fab 1181 (Fab, V domains shown)
VH: QVQLQQSGAELVRSGASVKLSCTASGFNIKDYFMQWVKQRPEQGLEWIGWIDPENGETGYAPKFQGKATMTADTASNTAYLQLSSLTSEDTALYYCNAPSVVAKYFDVWGAGTTVTVSS
VL: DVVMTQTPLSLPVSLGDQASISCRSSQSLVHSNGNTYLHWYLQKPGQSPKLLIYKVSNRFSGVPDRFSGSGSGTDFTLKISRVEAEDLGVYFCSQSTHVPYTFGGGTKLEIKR
notes: Mouse Fab from an Omniclonal library (Biosite); kappa light chain (detected and captured with goat anti-mouse kappa); the HCVR amino acid entry is 12
B6: Fab 1621 (Fab, V domains shown)
VH: QVQLQQSGAELVRSGASVKLSCTASGFNIKDYFVQWVKQRPEQGLEWIGWIDPENGETGYAPKFQGKATMTADTASNTAYLQLSSLTSEDTALYFCNAPSVVAKYFDVWGAGTTVTVSS
VL: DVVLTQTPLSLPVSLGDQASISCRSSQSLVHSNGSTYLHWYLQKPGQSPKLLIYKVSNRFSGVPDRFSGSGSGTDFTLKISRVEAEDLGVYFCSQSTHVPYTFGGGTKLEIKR
notes: Mouse Fab, kappa light chain
B7: Ghrelin (1-8 acyl) (peptide)
peptide: GSS(Octanoyl)FLSPE
notes: also called hGhrelin (1-8 acyl); Human 1-8 acyl
B8: Human 1-13 acyl (peptide)
peptide: GSSFLSPEHQRVQ
modifications: also: acyl (position and group not restated)
notes: also called human ghrelin 1-13 acyl; active human ghrelin analog
B9: full-length, acylated rat ghrelin (peptide, UniProt Q9QYH7 24-51, looked up)
peptide: GSSFLSPEHQKAQQRKESKKPPAKLQPR
modifications: also: acylated (position and acyl group not given here)
notes: mature; The UniProt entry is the precursor; the assay used the ghrelin peptide; also called rGhrelin
B10: full-length human ghrelin (1-28) acylated with an octanoyl group on the serine at position 3 (peptide)
peptide: GSSFLSPEHQRVQQRKESKKPPAKLQPX
modifications: octanoyl group on the serine at position 3
notes: the 1-28 form has Arg at 28; also called hGhrelin; acylated hGhrelin

Experiments:
[1] = target: B5; test: competitive ELISA, Fab 1181 on coated BSA-hGhrelin; compound 1 ug/ml
Method: (§1) The plate was incubated at 4° C. overnight. The wells are aspirated and washed twice with washing buffer (20 mM Tris-Cl, pH 7.4, 0.15 M NaCl, 0.1% Tween 20). Compounds (i.e., human ghrelin or ghrelin analogs) are diluted into antibody solution. […] The compound concentration is varied as listed in Tables 2-5 below, but the Fab concentration is kept constant at 0.1 μg/ml in blocking solution (10 mg/ml BSA in wash buffer). […] The plates are incubated for 1 hour at room temperature. The wells are then washed three times with washing buffer.
(§2) Peroxidase-conjugated secondary antibody (50 μl goat anti-mouse kappa HRP (Southern Biotech), diluted 1:2000 in blocking buffer) is added to each well and incubated for 1 hour at room temperature. The wells are then washed 4 times with washing buffer. Fifty microliters of chromogenic substrate (i.e., OPD substrate) is added to each well and allowed to develop at room temperature for 10 minutes. The reaction is stopped by adding 100 μl 1N HCl to each well. The absorbance of the wells is read at 490 nm.
(§3) The average absorbance from triplicate wells is determined.
Target sequence in this assay (VL, as listed by the source, chain 2 of 2, one chain of several): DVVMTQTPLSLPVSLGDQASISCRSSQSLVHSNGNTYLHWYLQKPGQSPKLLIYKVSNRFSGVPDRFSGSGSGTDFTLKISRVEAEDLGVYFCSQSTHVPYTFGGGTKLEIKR

[2] = target: B5; test: competitive ELISA, Fab 1181 on coated BSA-hGhrelin; compound 5 ug/ml
Method: as §1, §2, §3
Target sequence in this assay (VL, as listed by the source, chain 2 of 2, one chain of several): as above

[3] = target: B6; test: competitive ELISA, Fab 1621 on coated BSA-hGhrelin; compound 1 ug/ml
Method: as §1, §2, §3
Target sequence in this assay (VL, as listed by the source limits assumed, chain 2 of 2, one chain of several): as the sequence (VL, as listed by the source, chain 2 of 2, one chain of several) above, with M4L, N35S counted along it

[4] = target: B6; test: competitive ELISA, Fab 1621 on coated BSA-hGhrelin; compound 5 ug/ml
Method: as §1, §2, §3
Target sequence in this assay (VL, as listed by the source limits assumed, chain 2 of 2, one chain of several): as the sequence (VL, as listed by the source, chain 2 of 2, one chain of several) above, with M4L, N35S counted along it

[5] = target: B5; test: competitive ELISA, Fab 1181 on coated BSA-hGhrelin; compound 0.2 ug/ml
Method: as §1, §2, §3
Target sequence in this assay (VL, as listed by the source, chain 2 of 2, one chain of several): as the sequence (VL, as listed by the source, chain 2 of 2, one chain of several) above

[6] = target: B6; test: competitive ELISA, Fab 1621 on coated BSA-hGhrelin; compound 0.2 ug/ml
Method: as §1, §2, §3
Target sequence in this assay (VL, as listed by the source limits assumed, chain 2 of 2, one chain of several): as the sequence (VL, as listed by the source, chain 2 of 2, one chain of several) above, with M4L, N35S counted along it

[7] = target: B5; test: competitive ELISA, Fab 1181 on coated BSA-hGhrelin; compound 0 (baseline, no compound)
Method: as §1, §2, §3

[8] = target: B6; test: competitive ELISA, Fab 1621 on coated BSA-hGhrelin; compound 0 (baseline, no compound)
Method: as §1, §2, §3
Target sequence in this assay (VL, as listed by the source limits assumed): as the sequence (VL, as listed by the source, chain 2 of 2, one chain of several) above, with M4L, N35S counted along it

[9] = target: T1, peptide spanning amino acids 14-28 of human ghrelin (human); test: FLIPR assay, peptide competes with hGhrelin for the Fab (Fab 5 nM)
T1 peptide: QRKESKKPPAKLQPR
Method: (§4) The final concentration of the sample solution is 0.75% BSA, and calcium at approximately the same concentration as in the FLIPR buffer. Fifty microliters of the sample solution is added to the 50 μl FLIPR buffer in the well with the AV12 cells. […] The cell plate is shaken for 15 seconds prior to loading it into the FLIPR instrument. Test samples or control samples are added to each well, and read by a Fluorometric Imaging Plate Reader (Molecular Devices).

[10] = target: T1, peptide spanning amino acids 14-28 of …; test: FLIPR assay, peptide competes with hGhrelin for the Fab (Fab 20 nM)
Method: as §4

[11] = target: T2, human ghrelin peptide 4-28 (human); test: cell-based or functional assay
T2 peptide: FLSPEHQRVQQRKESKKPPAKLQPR

[12] = target: T3, human ghrelin peptide spanning amino acids 4-20 (human); test: cell-based or functional assay
T3 peptide: FLSPEHQRVQQRKESKK

[13] = target: T4, human ghrelin peptide 4-16 (human); test: cell-based or functional assay
T4 peptide: FLSPEHQRVQQRK

[14] = target: B10; test: cell-based or functional assay
[15] = target: B7; test: competitive ELISA on coated BSA-hGhrelin
Method: as §1, §2

[16] = target: T5, human ghrelin peptide 13-19 (human); test: FLIPR assay, peptide competes with hGhrelin for the Fab
T5 peptide: QQRKESK

[17] = target: T6, human ghrelin peptide 18-28 (human); test: as above
T6 peptide: SKKPPAKLQPR

[18] = target: T7, human ghrelin peptide 7-16 (human); test: as above
T7 peptide: PEHQRVQQRK

[19] = target: B4; test: as above
[20] = target: B9; test: SPR (BIAcore 2000), Fab captured on goat anti-mouse kappa, ghrelin in solution, 25 C
Method: (§5) The BIAcore® utilizes the optical properties of surface plasmon resonance to detect alterations in protein concentration of interacting molecules within a dextran biosensor matrix. Except where noted, all reagents and materials are purchased from BIAcore® AB (Upsala, Sweden). All measurements are performed at 25° C. Samples containing rat or human ghrelin (full length, acylated) are dissolved in HBS-EP buffer (150 mM sodium chloride, 3 mM EDTA, 0.005% (w/v) surfactant P-20, and 10 mM HEPES, pH 7.4). A capture antibody, goat anti-mouse Kappa (Southern Biotechnology, Inc), is immobilized onto flow cells using amine-coupling chemistry. Flow cells (1-4) are activated for 7 minutes with a 1:1 mixture of 0.1 M N-hydroxysuccinimide and 0.1 M 3-(N,N-dimethylamino)propyl-N-ethylcarbodiimide at a flow rate of 10 μl/min. Goat anti-mouse Kappa (30 μg/mL in 10 mM sodium acetate, pH 4.5) is manually injected over all 4 flow cells at a flow rate of 10 μL/min. The surface density is monitored and additional goat anti-mouse Kappa is injected if needed to individual cell until all flow cells reach a surface density of 4500-5000 response units (RU). Surfaces are blocked with a 7 minute injection of 1 M ethanolamine-HCl, pH 8.5(10 μl/min). To ensure complete removal of any noncovalently bound goat anti-mouse Kappa, 15 μL of 10 mM glycine, pH 1.5 is injected twice. Running buffer used for kinetic experiments contained 10 mM HEPES, pH 7.4, 150 mM NaCl, 0.005% P20.
(§6) Collection of kinetic binding data is performed at maximum flow rate (100 μL/min) and a low surface density to minimize mass transport effects.

[21] = target: B10; test: as above
Method: as §5, §6

[22] = target: T8, full-length human ghrelin not acylated (human); test: as above
T8 construct: also called hGhrelin (desacyl); des-acyl hGhrelin
Method: as §5, §6

[23] = target: B1; test: FLIPR assay, peptide competes with hGhrelin for the Fab (no reduction means the Fab does not bind the peptide)
[24] = target: T9, GHS-R1a human ghrelin receptor (human, UniProt Q92847 1-366); test: FLIPR calcium assay, AV12 cells expressing human GHS-R1a
T9 construct: whole, on cells; also called GHS-1a receptor; growth hormone secretagogue receptor
T9 sequence (Q92847 whole entry): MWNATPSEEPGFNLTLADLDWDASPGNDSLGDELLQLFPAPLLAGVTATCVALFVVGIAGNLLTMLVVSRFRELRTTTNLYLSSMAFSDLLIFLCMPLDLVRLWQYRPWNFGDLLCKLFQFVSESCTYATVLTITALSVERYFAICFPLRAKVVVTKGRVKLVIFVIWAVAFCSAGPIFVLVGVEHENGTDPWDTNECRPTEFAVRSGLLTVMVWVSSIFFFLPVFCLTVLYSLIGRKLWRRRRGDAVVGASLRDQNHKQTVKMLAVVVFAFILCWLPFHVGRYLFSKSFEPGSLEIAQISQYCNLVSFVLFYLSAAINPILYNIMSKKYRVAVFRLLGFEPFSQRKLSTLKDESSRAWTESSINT

Row | Binder | Ave. OD [1] | Ave. OD [2] | Ave. OD [3] | Ave. OD [4] | Ave. OD [5] | Ave. OD [6] | Ave. OD [7] | Ave. OD [8] | other results
1 | B1 | 1.19 OD | 1.18 OD | 1.33 OD | 1.26 OD | 1.22 OD | 1.38 OD | 1.23 OD | 1.17 OD | –
2 | B2 | – | – | – | – | – | – | – | – | binding result [9]: no binding (tested: 100 nM peptide)
3 | B3 | – | – | – | – | – | – | – | – | binding result [10]: no binding (tested: 100 nM peptide)
4 | B4 | 1.17 OD | 1.11 OD | 1.05 OD | 1.02 OD | 1.13 OD | 1.04 OD | 1.23 OD | 1.17 OD | –
5 | B5 | – | – | – | – | – | – | – | – | reduction of Fab inhibition of hGhrelin (0.83 nM), FLIPR calcium assay; peptide 100 nM, Fab 0.95 nM [11]: 80%; reduction of Fab inhibition of hGhrelin (0.83 nM), FLIPR calcium assay; peptide 100 nM, Fab 0.95 nM [12]: 74%; reduction of Fab inhibition of hGhrelin (0.83 nM), FLIPR calcium assay; peptide 100 nM, Fab 0.95 nM [13]: 30%; IC50 (nM), Inhibition of hGhrelin at 0.8 nM, FLIPR calcium assay [14]: 0.8 nM; binding result [15]: no binding (tested: 5 µg/ml); binding result [16]: no binding (tested: 100 nM peptide); binding result [17]: no binding (tested: 100 nM peptide); binding result [18]: no binding (tested: 100 nM peptide); binding result [19]: no binding (tested: 100 nM peptide); Kd [20]: 10.4 nM; Kd [21]: 0.202 nM; kon [21]: 3.39e+06 M⁻¹ s⁻¹; Kd [22]: 0.434 nM; binding result [23]: no binding (tested: 100 nM peptide)
6 | B6 | – | – | – | – | – | – | – | – | IC50 (nM), Inhibition of hGhrelin at 0.8 nM, FLIPR calcium assay [14]: 1.64 nM; binding result [15]: no binding (tested: 5 µg/ml); binding result [16]: no binding (tested: 100 nM peptide); binding result [17]: no binding (tested: 100 nM peptide); binding result [18]: no binding (tested: 100 nM peptide); binding result [19]: no binding (tested: 100 nM peptide); Kd [20]: 5.7 nM; Kd [21]: 0.68 nM; Kd [22]: 1.74 nM; binding result [23]: no binding (tested: 100 nM peptide)
7 | B7 | 1.22 OD | 1.21 OD | 1.32 OD | 1.22 OD | 1.26 OD | 1.36 OD | 1.23 OD | 1.17 OD | –
8 | B8 | – | – | – | – | – | – | – | – | binding result [24]: binds
9 | B9 | 0.883 OD | 0.178 OD | 0.932 OD | 0.429 OD | 1.12 OD | 0.999 OD | 1.23 OD | 1.17 OD | binding result [24]: binds
10 | B10 | 0.0497 OD | 0.0445 OD | 0.0495 OD | 0.043 OD | 0.0784 OD | 0.131 OD | 1.23 OD | 1.17 OD | –
